From patent US20230382948A1, “DELIVERY OF ENDOTHELIAL CELL-LADEN MICROGEL ELICITS ANGIOGENESIS IN SELF-ASSEMBLING ULTRASHORT PEPTIDE HYDROGELS” (KING ABDULLAH UNIVERSITY OF SCIENCE AND TECHNOLOGY, priority 2020, published 2023)

Assays:
[1] = Microgel fabrication by flow-focusing microfluidics, microgel imaging (diameter, roundness); assay type: physicochemical; conditions: for Microgel average diameter: SUP solution 1.5 wt %, oil with Span 80 (2%) and sodium chloride
Description: Since the microgels are intended to be cell carriers, the fabrication materials were sterilized before use when possible and handled aseptically inside a biosafety cabinet (BSC) to reduce contamination risk. Milli-Q® water and hexadecane were sterilized by autoclaving at 121° C. for 20 min. Light mineral oil was sterilized by dry heating at 160° C. for 1 h. Peptide powder and sodium chloride were sterilized by UV irradiation (GE® germicidal lamp 30 W) for 30 min inside BSC. Once sterile, the peptide powder was dissolved to 27.1 mM (15 mg/mL) in sterile Milli-Q® water by vortexing for 5 min and incubated at room temperature (22° C.) for 1 h (preassembly). Span 80 was dissolved to 2% (v/v) into light mineral oil and hexadecane, independently. Sodium chloride was added to the light mineral oil+Span 80 mix and shaked to disperse the sodium chloride crystals. The peptide solution was loaded in a 1 mL syringe, while the light mineral oil with Span 80 2% (v/v) and sodium chloride 3 mg/mL were loaded in a 3 mL syringe. Both syringes were connected with the microfluidic system, and both solutions were brought to the droplet generator point by pressing the syringes manually. Then, both syringes were inserted into the pumps, and the flow rate was set at 10 μL/min for continuous phase (light mineral oil with Span 80 and sodium chloride) and 1 μL/min for dispersed phase (peptide solution). Droplet generation was monitored by on-site bright-field microscopy, and once it was stable and continuous, the droplets were collected in a tube containing light mineral oil with Span 80 2% (v/v). To confirm peptide droplet gelation, FluoSpheres® or QD were sometimes incorporated into the peptide solution during the preassembly incubation. Microgels were isolated from oil adding the same volume of hexadecane containing Span 80 (2% v/v) and centrifuged at 10 g for 5 min, and the oil layer was discarded. Microgels were washed with hexadecane plus Span 80 (2% v/v) two more times, discarding the hexadecane layer. A volume of DPBS containing Tween 20 (10% v/v) was gently added on the microgels through the collection tube walls and removed after 5 min. DPBS—Tween 20 washing was repeated 2 more times, decreasing the Tween 20 content to 1% v/v and 0.1% v/v sequentially. Finally, 250μL of DPBS was added on the microgels to keep them soaked, and they were kept on a shelf (22° C.) until further use. The microgel shape and size were checked by confocal laser scanning microscopy (CLSM).
Microgel imaging was done at each condition and time point using a CLSM Zeiss® 710 or 880 by tile scanning with 15% overlapping and online stitching to capture as many microgels as possible from the dish. The Feret diameter and roundness of each microgel was calculated using ImageJ software by manually drawing up to 59 microgel contours per condition. All statistical data analysis and microgel descriptor plotting were conducted in Origin software. To assess the effect of the treatments on the microgel diameter and roundness, a Kruskal—Wallis test with Posthoc test pairwise Mann—Whitney U tests was applied.

SEM of microgels = assay type: physicochemical; conditions: for Microgel surface fiber bundle thickness: SEM
Description: The surface topography of the microgels was visualized using a FEI Magellan XHR Scanning Electron Microscope with an accelerating voltage of 3 kV. The SEM samples were prepared by dehydrating the peptide microgels in a gradually increasing ethanol concentration. The dehydrated microgels were then dried in a Leica EM CPD300. The dried peptides were sputter coated with 5 nm […] before imaging.

[2] = tested on: endothelial cells (HUVECs); assay: Cell culture on microgels, HUVEC; assay type: cell-based, human; conditions: first 24 h of culture
Description: A 1.2×10^6 amount of cells suspended in 4 mL of complete cell culture media (300,000 cells/mL) was mixed with 200 μL of microgels by pipetting. The mix was seeded at […] in a 24-well low binding plate and kept at 37° C., 95% humidity, and 5% CO2 under rocker conditions at 30 rpm for 24 h. Then, cell-laden microgels were transferred into a tube by pipetting and spun down at 50 g for 5 min. The upper layer, containing cells not adherent to the microgels, was discarded. At this moment, cell-laden microgels were either resuspended with complete cell culture media to continue cell culture under rocker conditions or processed for staining.
The cell-laden microgels were fixed with 4% formaldehyde (v/v) in PBS and incubated for 30 min at 22° C. Later, formaldehyde was removed by centrifugation, and cell-laden microgels were washed twice with PBS in a similar way. Permeabilization buffer (6.3 mM MgCl2, 233.7 mM sucrose, 0.5% (v/v) Triton® X-100 in PBS) was kept at −20° C. and thawed just before use. […]
Proliferative cells were labeled by incubating cell-laden microgels with […] EdU in complete medium for 24 h in rocking culture at 30 rpm. […] EdU was detected following the manufacturer instructions by incubating cell-laden microgels with a Click-iT Plus reaction cocktail for 30 min at 22° C. protected from light. […]

[3] = after extraction to the aqueous phase (PBS)

| Substance | Microgel swelling on extraction from the oil phase to the aqueous phase [1] | Microgel average diameter [1] [μm] | Microgel roundness, average [1, 3] | Microgel roundness, average ([1]; in oil) | Microgel stability through SEM sample preparation (SEM of microgels; 1.5 wt %, critical point drier) | Microgel surface fiber bundle thickness (SEM of microgels) | HUVEC cell adhesion and morphology on microgels [2] | Minimum concentration with many intact microgels after isolation in the aqueous phase [1] [wt %] |
| --- | --- | --- | --- | --- | --- | --- | --- | --- |
| Ac-Ile-Val-Cha-Lys-NH2 (IVXK; HELM PEPTIDE1{[ac].I.V.[Cha].K.[am]}$$$$V2.0; SMILES CC[C@H](C)[C@H](NC(C)=O)C(=O)N[C@H](C(=O)N[C@@H](CC1CCCCC1)C(=O)N[C@@H](CCCCN)C(N)=O)C(C)C) [IVZK, self-assembling ultrashort tetrapeptide, Z = cyclohexylalanine, forms hydrogels and microgels] | not | 350 | 0.88 | 0.98 | stable enough to maintain their 3D spherical structure | around 20 nm | cell adhesion and stretched morphology |  |
| Ac-Ile-Val-Phe-Lys-NH2 (Ac-IVFK-NH2) [self-assembling ultrashort tetrapeptide, forms hydrogels and microgels] | 50 μm | 300 | 0.88 | 0.98 |  | around 20 nm | cell adhesion and stretched morphology | 0.8 |
